B1: TPR t1 (parent)
chain: GACCAAUCUGCCCUCAGAGCUCGAGAACAUCUUCGGAUGCAGAGGAGGCAGGCUUCGGUGGCGCGAUAGCGCCAACGUCCUCAACCUCCAAUGCAUCCCACCACAUGAUGAUGCCUGAAGAGCCUUGGUUUUUUG

Variants of: B1
Assay: polymerase ribozyme fitness, log enrichment relative to wild type (log ratio); higher = more active; in vitro selection for triplet polymerase activity
In short: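 Each subunit of a heterodimeric triplet polymerase ribozyme was represented by a PCR-built, transcribed mutant library that underwent triplicate single-round in vitro selection with frozen incubation at −7 °C. Extended constructs were recovered by gel excision, streptavidin-bead capture and RT-PCR, and Illumina sequencing of input and output libraries kept genotypes with ≥10 input reads and ≥1 read per output. Fitness is the logarithm of genotype enrichment relative to wild-type enrichment, from inverse-variance-weighted replicate averages, with a logarithm base of 2.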

Row | Variant | polymerase ribozyme fitness (log ratio)
1 | C34G C99U U130A | -4.6
2 | C34U G110U | -4.07
3 | C34A U133A | -2.19
4 | U33C G52A G58C G69A C104U U109A A111G U112A | -6.93
5 | U33A G52U C115A | -4.73
6 | C34G G69U C123A | -2.45
7 | C34A G44C G69U C88A A91C G110A | -4.87
8 | C34G G61A G113U G122U | -7.08
9 | C34A C82U C97G | -3.48
10 | G35A G57U A74U | -4.21
11 | C34U G44C U87A C89G C115A | -4.92
12 | C34A C53A C56A | -2.66
13 | C34A C101G U129A | -4.66
14 | C34A G61C A91C A121U U134C | -5.66
15 | C34A U38A G71U C101U | -5.16
16 | C34A U54A G69U A121G | 1.52
17 | C34G C70U U96A A103U A121C U132C | -7.51
18 | G35A C73U U78G A90G C115G A121C | -5.51
19 | C34A U55G G77A | -4.67
20 | U33A U87A U133G | -4.32
21 | U33C A37C | -6.92

Row | Variant | polymerase ribozyme fitness (log ratio)
22 | C34A G36U | -4.2
23 | U33C C70G | -6.4
24 | G35A G42C | -5.64
25 | C34A U55C | -3.18
26 | U33A C56A | -4.57
27 | C34U U125A | -4.8
28 | G35A G61C | -5.94
29 | C34G C80U C89G G120C U129C | -6.96
30 | U33A C62G C73A U78G | -5.54
31 | C34A C72U | -2.58
32 | U33C C62U | -5.05
33 | C34G A50U G61C A90G G110C | -7.04
34 | G35A G39A C70U C72U U109G C124U | -7.05
35 | C34U G60U C99U | -3.7
36 | C34A C62U C85G U130C | -2.75
37 | G35A G42A U106A U112G A121C G127U G128A | -5.37
38 | C34U G120A U130A | -4.02
39 | C34A C76A | -4.09
40 | C34A C82A U112A | -2.63
41 | U33C C99G U109A | -7.26
42 | U33A G120U | -5.15

Row | Variant | polymerase ribozyme fitness (log ratio)
43 | C34G A90C U112G | -6.02
44 | C34A C40U C49A C62U U96G | -5.57
45 | C34U C72U U106A | -4.34
46 | G35A A37U U87G | -5.66
47 | C34U U54A G69U C79U G93A U96A | -6.73
48 | C34U G52U G69C C79G A100G C114U | -5.24
49 | C34U C40U G42A A43G C104A U109A G135A | -4.93
50 | C34U C86U C104U C114U | -4.34
51 | C34G A74U A90C U112G | -6.64
52 | C34A G60A C115U | -5.48
53 | C34G A43C G60U | -6.09
54 | C34A G113C G117C | -6.74
55 | C34U U87A | -4.77
56 | C34U C70U | -5.65
57 | C34U C53U C56U | -5.01
58 | C34U C64U | -3.93
59 | C34G U59A G117U U129G | -8.01
60 | C34U C56U | -4.1
61 | G35A C72G U112C | -2.35
62 | G35A A74C C101U | -4.16
63 | C34G C53U G60A U87G G110C | -7.9

Row | Variant | polymerase ribozyme fitness (log ratio)
64 | C34A C72U C85A G113A | -5.11
65 | U33A G51A C72U U112A | -6.67
66 | U33C A37C G42U G69U A111C C115A G127C U133G | -5.26
67 | C34A G48U G61C C72G C94G A119G U133C | -3.16
68 | C34U A50U C102U U109A C124U | -5.84
69 | C34A G135U | -3.05
70 | C34A A74C C89G G113C A118C U131A | -5.57
71 | U33G G69C C80G A91C U92A C101U C115G | -7.68
72 | U33C G77C | -5.05
73 | C34U C72A | -3.94
74 | C34U A83C | -5.74
75 | C34A C85A G113A | -4.78
76 | C34A C80U G127U | -4.5
77 | U33A G57U C124A U126A | -3.51
78 | U33G G69U | -2.25
79 | C34A G48C G77A | -2.78
80 | C34U C114U U131A | -4.04
81 | C34G C53U | -5.89
82 | C34G G69U | -2.21
83 | U33G C34G A103U | -6.38
